Assay results reported in patent US20220098635A1.

How the values were obtained:
Thiolated streptavidin [1] = biological target: Thiolated streptavidin (UniProt P22629); test: single-molecule conductance distribution (counts against Log G, fitted peaks); two-Avitag phi29 polymerase without flexible linker wired with biotin-streptavidin; the same distribution as 52 in Fig. 5B
Thiolated streptavidin [2] = biological target: Thiolated streptavidin (UniProt P22629); test: single-molecule conductance distribution (counts against Log G, fitted peaks); bis-biotinylated phi29 polymerase in a junction of palladium electrodes coated with thiolated streptavidin

Sequence of Thiolated streptavidin (P22629 37-163 limits assumed): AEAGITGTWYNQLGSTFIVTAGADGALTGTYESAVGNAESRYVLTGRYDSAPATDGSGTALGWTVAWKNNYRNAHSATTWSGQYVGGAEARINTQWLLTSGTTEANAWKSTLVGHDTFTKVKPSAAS

Q: With “bis-biotinylated ϕ29 polymerase (from UniProt P03680 1-111; P03680 112-279; P03680 280-575) (enzyme)” as the substance, how does the conductance peak (circled feature 1103) (Thiolated streptavidin [1]) read?
A: Its conductance peak (circled feature 1103) is 3.98 nS.

Q: And the conductance peak (circled feature 53) (Thiolated streptavidin [2])?
A: Its conductance peak (circled feature 53) is 3.98 nS.
